Experiment in all cases: cell-based or functional assay
Assay [1] addresses COX6A2-nanoluc-alfa-tag-fusion.
The target in assay [2] is T1, UQCC2-nanoluc-alfa-tag-fusion.
T1 chain: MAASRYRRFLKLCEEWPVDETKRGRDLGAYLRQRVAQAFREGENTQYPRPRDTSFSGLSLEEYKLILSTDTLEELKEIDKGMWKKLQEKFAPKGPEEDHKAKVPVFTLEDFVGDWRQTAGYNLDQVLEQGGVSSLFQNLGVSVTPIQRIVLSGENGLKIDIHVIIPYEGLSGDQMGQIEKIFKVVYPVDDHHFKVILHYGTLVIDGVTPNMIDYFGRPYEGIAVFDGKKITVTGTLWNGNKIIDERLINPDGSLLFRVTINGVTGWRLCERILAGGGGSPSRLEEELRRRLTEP

Assay [3] concerns the target T2, LYRM7-nanoluc-alfa-tag-fusion.
T2 chain: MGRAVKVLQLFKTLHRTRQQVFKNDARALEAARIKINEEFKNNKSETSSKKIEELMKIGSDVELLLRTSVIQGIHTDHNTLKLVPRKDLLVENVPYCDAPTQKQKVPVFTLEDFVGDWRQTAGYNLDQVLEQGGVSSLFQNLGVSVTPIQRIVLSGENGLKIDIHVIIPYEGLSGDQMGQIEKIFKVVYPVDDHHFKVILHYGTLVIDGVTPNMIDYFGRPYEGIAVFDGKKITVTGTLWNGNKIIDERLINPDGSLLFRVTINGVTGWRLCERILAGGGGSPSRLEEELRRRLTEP

B1: FireflyLuciferase-P2A-a_alfatag_nano-Cezanne (other)
chain: MEDAKNIKKGPAPFYPLEDGTAGEQLHKAMKRYALVPGTIAFTDAHIEVDITYAEYFEMSVRLAEAMKRYGLNTNHRIVVCSENSLQFFMPVLGALFIGVAVAPANDIYNERELLNSMGISQPTVVFVSKKGLQKILNVQKKLPIIQKIIIMDSKTDYQGFQSMYTFVTSHLPPGFNEYDFVPESFDRDKTIALIMNSSGSTGLPKGVALPHRTACVRFSHARDPIFGNQIIPDTAILSVVPFHHGFGMFTTLGYLICGFRVVLMYRFEEELFLRSLQDYKIQSALLVPTLFSFFAKSTLIDKYDLSNLHEIASGGAPLSKEVGEAVAKRFHLPGIRQGYGLTETTSAILITPEGDDKPGAVGKVVPFFEAKVVDLDTGKTLGVNQRGELCVRGPMIMSGYVNNPEATNALIDKDGWLHSGDIAYWDEDEHFFIVDRLKSLIKYKGYQVAPAELESILLQHPNIFDAGVAGLPDDDAGELPAAVVVLEHGKTMTEKEIVDYVASQVTTAKKLRGGVVFVDEVPKGLTGKLDARKIREILIKAKKGGKIAVTRLKGSGATNFSLLKQAGDVEENPGPRSGTGSSGEVQLQESGGGLVQPGGSLRLSCTASGVTISALNAMAMGWYRQAPGERRVMVAAVSERGNAMYRESVQGRFTVTRDFTNKMVSLQMDNLKPEDTAVYYCHVLEDRVDSFHDYWGQGTQVTVSSGAPGSGPPSFSEGSGGSRTPEKGFSDREPTRPPRPILQRQDDIVQEKRLSRGISHASSSIVSLARSHVSSNGGGGGSNEHPLEMPICAFQLPDLTVYNEDFRSFIERDLIEQSMLVALEQAGRLNWWVSVDPTSQRLLPLATTGDGNCLLHAASLGMWGFHDRDLMLRKALYALMEKGVEKEALKRRWRWQQTQQNKESGLVYTEDEWQKEWNELIKLASSEPRMHLGTNGANCGGVESSEEPVYESLEEFHVFVLAHVLRRPIVVVADTMLRDSGGEAFAPIPFGGIYLPLEVPASQCHRSPLVLAYDQAHFSALVSMEQKENTKEQAVIPLTDSEYKLLPLHFAVDPGKGWEWGKDDSDNVRLASVILSLEVKLHLLHSYMNVKWIPLSSDAQAPLAQ
Take B1: the “fold increase in COX6A2 protein expression (NLuc signal divided by firefly luciferase signal, relative to control)” value in assay [1] was 1.48 fold. Also, in assay [2], the “fold increase in UQCC2 protein expression (NLuc signal divided by firefly luciferase signal, relative to control)” value amounted to 2.87 fold. The “fold increase in LYRM7 protein expression (NLuc signal divided by firefly luciferase signal, relative to control)” value in assay [3] worked out at 1.39 fold.

The values above are taken from US20240026330A1 (FLUX THERAPEUTICS, published 2024).
